From patent US10487348B2, “3-alpha-hydroxysteroid dehydrogenase mutants and process for the preparation of ursodeoxycholic acid” (Pharmazell GmbH, priority 2014, dated 2019)
Numbering of substitutions follows the chain as printed. Numbers in names are those of the source. Marks after values point to notes of the source that are not given here.

B1: Comamonas testosteroni 3α-HSDH, wild type, C-terminal 9×His tag (SEQ ID NO: 51) (Comamonas testosteroni) (protein)
chain: MSIIVISGCATGIGAATRKVLEAAGHQIVGIDIRDAEVIADLSTAEGRKQAIADVLAKCSKGMDGLVLCAGLGPQTKVLGNVVSVNYFGATELMDAFLPALKKGHQPAAVVISSVASAHLAFDKNPLALALEAGEEAKARAIVEHAGEQGGNLAYAGSKNALTVAVRKRAAAWGEAGVRLNTIAPGATETPLLQAGLQDPRYGESIAKFVPPMGRRAEPSEMASVIAFLMSPAASYVHGAQIVIDGGIDAVMRPTQFLEHHHHHHHHH
B2: T188A N: 3α-HSDH mutant T188A with N-terminal hexahistidine tag (protein, UniProt P80702 2-257, looked up, variant T188A)
3-alpha-hydroxysteroid …: SIIVISGCATGIGAATRKVLEAAGHQIVGIDIRDAEVIADLSTAEGRKQAIADVLAKCSKGMDGLVLCAGLGPQTKVLGNVVSVNYFGATELMDAFLPALKKGHQPAAVVISSVASAHLAFDKNPLALALEAGEEAKARAIVEHAGEQGGNLAYAGSKNALTVAVRKRAAAWGEAGVRLNTIAPGAAETPLLQAGLQDPRYGESIAKFVPPMGRRAEPSEMASVIAFLMSPAASYVHGAQIVIDGGIDAVMRPTQF
modifications: N-terminal His6 tag
notes: 3α-HSDH mutant T188A with N-terminal hexahistidine tag
B3: P185A/T188A N: 3α-HSDH dual mutant P185A/T188A with N-terminal hexahistidine tag (protein, UniProt P80702 2-257, looked up, variant P185A T188A)
3-alpha-hydroxysteroid …: B2 3-alpha-hydroxysteroid … with P184A
modifications: N-terminal His6 tag
notes: 3α-HSDH dual mutant P185A/T188A with N-terminal hexahistidine tag
B4: L68A/T188A N: 3α-HSDH dual mutant L68A/T188A with N-terminal hexahistidine tag (protein, UniProt P80702 2-257, looked up, variant L68A T188A)
3-alpha-hydroxysteroid …: B2 3-alpha-hydroxysteroid … with L67A
modifications: N-terminal His6 tag
notes: 3α-HSDH dual mutant L68A/T188A with N-terminal hexahistidine tag
B5: L68A N: 3α-HSDH mutant L68A with N-terminal hexahistidine tag (protein, UniProt P80702 2-257, looked up, variant L68A)
3-alpha-hydroxysteroid …: B2 3-alpha-hydroxysteroid … with L67A, A187T
modifications: N-terminal His6 tag
notes: 3α-HSDH mutant L68A with N-terminal hexahistidine tag
B6: T188S N: 3α-HSDH mutant T188S with N-terminal hexahistidine tag (protein, UniProt P80702 2-257, looked up, variant T188S)
3-alpha-hydroxysteroid …: B2 3-alpha-hydroxysteroid … with A187S
modifications: N-terminal His6 tag
notes: 3α-HSDH mutant T188S with N-terminal hexahistidine tag
B7: L68A/T188S N: 3α-HSDH dual mutant L68A/T188S with N-terminal hexahistidine tag (protein, UniProt P80702 2-257, looked up, variant L68A T188S)
3-alpha-hydroxysteroid …: B2 3-alpha-hydroxysteroid … with L67A, A187S
modifications: N-terminal His6 tag
notes: 3α-HSDH dual mutant L68A/T188S with N-terminal hexahistidine tag
B8: Comamonas testosteroni 3α-HSDH, wild type, C-terminal 3×His tag (Comamonas testosteroni) (protein)
chain: MSIIVISGCATGIGAATRKVLEAAGHQIVGIDIRDAEVIADLSTAEGRKQAIADVLAKCSKGMDGLVLCAGLGPQTKVLGNVVSVNYFGATELMDAFLPALKKGHQPAAVVISSVASAHLAFDKNPLALALEAGEEAKARAIVEHAGEQGGNLAYAGSKNALTVAVRKRAAAWGEAGVRLNTIAPGATETPLLQAGLQDPRYGESIAKFVPPMGRRAEPSEMASVIAFLMSPAASYVHGAQIVIDGGIDAVMRPTQFLEHHH
B9: Comamonas testosteroni 3α-HSDH, wild type, without His tag, SEQ ID NO:4 (Comamonas testosteroni) (protein)
chain: MSIIVISGCATGIGAATRKVLEAAGHQIVGIDIRDAEVIADLSTAEGRKQAIADVLAKCSKGMDGLVLCAGLGPQTKVLGNVVSVNYFGATELMDAFLPALKKGHQPAAVVISSVASAHLAFDKNPLALALEAGEEAKARAIVEHAGEQGGNLAYAGSKNALTVAVRKRAAAWGEAGVRLNTIAPGATETPLLQAGLQDPRYGESIAKFVPPMGRRAEPSEMASVIAFLMSPAASYVHGAQIVIDGGIDAVMRPTQF
B10: Comamonas testosteroni 3α-HSDH dual mutant [L68A/T188A], N-terminal hexahistidine tag (Comamonas testosteroni; L68A/T188A) (protein)
chain: B9 chain with L68A, T188A
B11: Comamonas testosteroni 3α-HSDH dual mutant [P185A/T188A], N-terminal hexahistidine tag (Comamonas testosteroni; P185A/T188A) (protein)
chain: B9 chain with P185A, T188A
B12: Comamonas testosteroni 3α-HSDH mutant [P185A], N-terminal hexahistidine tag (Comamonas testosteroni; P185A) (protein)
chain: B9 chain with P185A
B13: Comamonas testosteroni 3α-HSDH mutant [T188S], N-terminal hexahistidine tag (Comamonas testosteroni; T188S) (protein)
chain: B9 chain with T188S
B14: Comamonas testosteroni 3α-HSDH mutant [T188A], N-terminal hexahistidine tag (Comamonas testosteroni; T188A) (protein)
chain: B9 chain with T188A
B15: Comamonas testosteroni 3α-HSDH dual mutant [L68A/T188S], N-terminal hexahistidine tag (Comamonas testosteroni; L68A/T188S) (protein)
chain: B9 chain with L68A, T188S
B16: Comamonas testosteroni 3α-HSDH, wild type, N-terminal hexahistidine tag (Comamonas testosteroni) (protein)
chain: B9 chain
B17: Comamonas testosteroni 3α-HSDH mutant [L68A], N-terminal hexahistidine tag (Comamonas testosteroni; L68A) (protein)
chain: B9 chain with L68A
B18: Comamonas testosteroni 3α-HSDH mutant [T188G], N-terminal hexahistidine tag (Comamonas testosteroni; T188G) (protein)
chain: B9 chain with T188G

What was measured:
[1] = substrate: C[C@H](CCC(=O)O)[C@H]1CC[C@H]2[C@@H]3C(=O)C[C@@H]4CC(=O)CC[C@]4(C)[C@H]3CC(=O)[C@]12C; assay: cells, lysate or membranes named; conditions: pH 8.0, 25.0 °C
[2] = tested on: 3α-HSDH; substrate DHCA; type: biochemical, Comamonas testosteroni; conditions: for DHCA substrate concentration at maximum specific activity / substrate excess inhibition: purified enzyme variant
[3] = substrate: NC(=O)C1=CN([C@@H]2O[C@H](COP(=O)(O)OP(=O)(O)OC[C@H]3O[C@@H](n4cnc5c(N)ncnc54)[C@H](O)[C@@H]3O)[C@@H](O)[C@H]2O)C=CC1; assay: purified protein, by the assay type; conditions: other: Table 15, substrate NADH, apparent values, pH 8.0
[4] = substrate: C[C@H](CCC(=O)O)[C@H]1CC[C@H]2[C@@H]3C(=O)C[C@@H]4CC(=O)CC[C@]4(C)[C@H]3CC(=O)[C@]12C; assay: purified protein, by the assay type; conditions: other: Table 14, substrate DHCA, tag N, apparent values, pH 8.0
[5] = substrate: NC(=O)C1=CN([C@@H]2O[C@H](COP(=O)(O)OP(=O)(O)OC[C@H]3O[C@@H](n4cnc5c(N)ncnc54)[C@H](O)[C@@H]3O)[C@@H](O)[C@H]2O)C=CC1; assay: Michaelis-Menten kinetics of wild-type 3α-HSDH with N-terminal His tag; type: biochemical, Comamonas testosteroni; conditions: other: Table 15, substrate NADH, apparent values, pH 8.0
Excerpt: The His-tag allows for very simple purification of the HSDH protein since this sequence is bound with high specificity by specific chromatographic material (NTA (Ni-nitrilotriacetate)-modified support material, loaded with divalent nickel ions, for example “His Pur Ni-NTA” (Nimagen B. V., Nijmegen, The Netherlands)). To this end, the cell-free crude extract is applied to a dropping column comprising this material, which dropping column has previously been equilibrated with the disruption buffer (3 to 5 column volumes). Weakly binding protein was removed by washing with 3 to 5 column volumes of wash buffer (20 mM imidazole, 50 mM sodium phosphate, 300 mM NaCl, pH 8). The His-tag-3α-HSDH protein was eluted with imidazole-comprising elution buffer (250 mM imidazole, 50 mM sodium phosphate, 300 mM NaCl, pH 8). The process was carried out at room temperature. The imidazole which was present was to be removed by buffer exchange.
(§1) The activity of the 3α-HSDH and of the mutants was determined using a photometric assay, where the decrease in absorbance was measured at 340 nm over a period of 30 seconds.
(§2) The targeted exchange of amino acid radicals was performed analogously to Example 2B.
Following cultivation and expression, the cells were harvested, and the specific activities of the cell-free crude extracts were determined at substrate concentrations of 10 mM DHCA. The enzyme variants where the activity measurements with crude extract enzyme were most promising were purified by means of Ni-NTA chromatography, […] In addition, an expression check by means of SDS PAGE was carried out for all mutants.

[6] = substrate: C[C@H](CCC(=O)O)[C@H]1CC[C@H]2[C@@H]3C(=O)C[C@@H]4CC(=O)CC[C@]4(C)[C@H]3CC(=O)[C@]12C; assay: Kinetics of 3α-HSDH [T188G], N-terminal His tag; type: biochemical, Comamonas testosteroni; conditions: other: Table 14, substrate DHCA, apparent values, pH 8.0
Protocol: as §1, §2
Following cultivation and expression, the cells were harvested, and the specific activities of the cell-free crude extracts were determined at substrate concentrations of 10 mM DHCA. The enzyme variants where the activity measurements with crude extract enzyme were most promising were purified by means of Ni-NTA chromatography, and their kinetic constants were determined by measurements with different DHCA concentrations of between 10 μM and 20 mM. In addition, an expression check by means of SDS PAGE was carried out for all mutants.

[7] = other: crude extract (without His tag), DHCA, read from the diagram

| Molecule | DHCA substrate concentration at maximum specific activity [2] | substrate excess inhibition ([2]; substrate DHCA) | Km ([3]; tag N) | Vmax ([3]; tag N) | kcat ([3]; tag N) | kcat/Km ([3]; tag N) | Km [4] | further results |
| --- | --- | --- | --- | --- | --- | --- | --- | --- |
| B1 |  |  |  |  |  |  |  | Km ([1]; other: His tag length 9, DHCA 10 μM-10 mM, NADH 0.2 mM, purified): 70.5 ± 14.2 µM |
| B2 | 0.5 mM | pronounced substrate excess inhibition |  |  |  |  |  |  |
| B3 | 0.5 mM | substrate excess inhibition was observed |  |  |  |  |  | activities compared with the corresponding single mutants ([2]; substrate DHCA): markedly lower |
| B4 | 0.5 mM | less pronounced substrate excess inhibition |  |  |  |  |  |  |
| B5 | 0.1 mM | pronounced substrate excess inhibition |  |  |  |  |  |  |
| B6 | 0.5 mM | substrate excess inhibition is observed |  |  |  |  |  |  |
| B7 | 0.5 mM | pronounced substrate excess inhibition |  |  |  |  |  |  |
| B8 |  |  |  |  |  |  |  | Km ([1]; other: His tag length 3, DHCA 10 μM-10 mM, NADH 0.2 mM, purified): 997.9 ± 483 µM |
| B9 |  |  |  |  |  |  |  | Km [1, 7]: 200* μM; Vmax [1, 7]: 25 µmol/min/mg; Km ([3]; without tag, 25.0 °C): 46.9 ± 5.9 µM; Vmax ([3]; without tag, 25.0 °C): 186 µmol/min/mg; kcat ([3]; without tag, 25.0 °C): 88.5 s⁻¹; kcat/Km ([3]; without tag, 25.0 °C): 1.88e+06 M⁻¹ s⁻¹ |
| B10 |  |  | 67.5 ± 4.7 µM | 229 µmol/min/mg | 111 s⁻¹ | 1.65e+06 M⁻¹ s⁻¹ | 164.4 ± 20.4 µM |  |
| B11 |  |  | 333.9 ± 137.5 µM | 85.9 µmol/min/mg | 17.6 s⁻¹ | 52600 M⁻¹ s⁻¹ | 66.9 ± 15 µM |  |
| B12 |  |  |  |  |  |  | 71.0 ± 11 µM |  |
| B13 |  |  | 87.6 ± 29.7 µM | 147 µmol/min/mg | 96.1 s⁻¹ | 1.1e+06 M⁻¹ s⁻¹ | 312.6 ± 112 µM |  |
| B14 |  |  | 111.5 ± 18.2 µM | 237 µmol/min/mg | 130 s⁻¹ | 1.17e+06 M⁻¹ s⁻¹ | 94.5 ± 11 µM |  |
| B15 |  |  | 47.4 ± 2.6 µM | 188 µmol/min/mg | 91.8 s⁻¹ | 1.94e+06 M⁻¹ s⁻¹ | 169.6 ± 22.6 µM |  |
| B16 |  |  |  |  |  |  |  | Km [5]: 59.2 ± 6.9 µM; Vmax [5]: 109 µmol/min/mg; kcat [5]: 47.1 s⁻¹; kcat/Km [5]: 796000 M⁻¹ s⁻¹ |
| B17 |  |  | 17.1 ± 3.7 µM | 138 µmol/min/mg | 110 s⁻¹ | 6.46e+06 M⁻¹ s⁻¹ |  | Km ([4]; NADH 0.2 mM): 75.4 ± 22.6 µM |
| B18 |  |  |  |  |  |  |  | Km [6]: 1458 ± 182.6 µM; Vmax [6]: 20.3 ± 0.8 U/mg; kcat [6]: 9.6 s⁻¹ |
